The text below walks through data of publication PMC11629141.

Experiment [1] has as its target 6G11 (BI‐1206), full‐length antibody containing the PGLALA Fc mutations (human). The experiment can be described thus: BLI; 6G11 (5 µg/mL) loaded on Protein A tips; original or mutated S2B scFv 500-7.8 nM in 1:2 dilutions; association and dissociation 180 s each.
Experiment [2] has the same target. As to the kind of experiment: ELISA; 6G11 coated (5 µg/mL, MaxiSorp, overnight 4°C); scFv 500 to 0.19 nM, 1 h RT; detection with StrepTactin-HRP. Background: In an ELISA, binding on a coated surface is turned into a signal by an enzyme label.

Broadly, the EC50 is the concentration giving half of the maximal effect. Lower therefore signals an effect from little substance.

Chain of 6G11 (BI‐1206), full‐length antibody containing the PGLALA Fc mutations (human) (heavy, as listed by the source, chain 1 of 2): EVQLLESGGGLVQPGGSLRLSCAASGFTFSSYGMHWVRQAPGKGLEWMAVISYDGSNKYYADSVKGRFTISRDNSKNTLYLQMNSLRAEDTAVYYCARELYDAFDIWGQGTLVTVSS
Chain of 6G11 (BI‐1206), full‐length antibody containing the PGLALA Fc mutations (human) (light, as listed by the source, chain 2 of 2): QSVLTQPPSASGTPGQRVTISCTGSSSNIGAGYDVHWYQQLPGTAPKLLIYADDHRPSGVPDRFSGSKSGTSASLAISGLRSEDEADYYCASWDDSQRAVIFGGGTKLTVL

B1: S2B R101A scFv, solitary (scFv, V domains shown)
VH: AVTLDESGGGLQTPGGGLSLVCKASGFTFSSYSMVWVRQAPSKRLEWVAGIYSSATWTYYAPAVKGRATISRDNGQSTVRLQLNDLRAEDTGTYFCAKTSASGWTAYSASAIDAWGHGTEVIV
VL: ALTQPSSVSANPGETVKITCSGGSSYYGWYQQKSPGSAPVTVIYSNDKRPSDIPSRFSGSTSGSTATLTITGVQADDEAVYFCGGYDSNIHGGIFGAGTTLTVL
As for B1, the fold decrease in affinity against the original S2B in experiment [1] is 6 fold.

B2: S2B scFv (blocking anti‐6G11 scFv clone 2), solitary (scFv, V domains shown)
VH: AVTLDESGGGLQTPGGGLSLVCKASGFTFSSYSMVWVRQAPSKRLEWVAGIYSSATWTYYAPAVKGRATISRDNGQSTVRLQLNDLRAEDTGTYFCAKTSRSGWTAYSASAIDAWGHGTEVIV
VL: ALTQPSSVSANPGETVKITCSGGSSYYGWYQQKSPGSAPVTVIYSNDKRPSDIPSRFSGSTSGSTATLTITGVQADDEAVYFCGGYDSNIHGGIFGAGTTLTVL
B2: the EC50 in experiment [2] came out at 28.7 nM.

B3: S2B Y52A scFv, solitary (scFv, V domains shown)
VH: AVTLDESGGGLQTPGGGLSLVCKASGFTFSSYSMVWVRQAPSKRLEWVAGIASSATWTYYAPAVKGRATISRDNGQSTVRLQLNDLRAEDTGTYFCAKTSRSGWTAYSASAIDAWGHGTEVIV
VL: ALTQPSSVSANPGETVKITCSGGSSYYGWYQQKSPGSAPVTVIYSNDKRPSDIPSRFSGSTSGSTATLTITGVQADDEAVYFCGGYDSNIHGGIFGAGTTLTVL
As to B3, in experiment [1], the fold decrease in binding against the original S2B was 4 fold.

B4: S2B W104A scFv, solitary (scFv, V domains shown)
VH: AVTLDESGGGLQTPGGGLSLVCKASGFTFSSYSMVWVRQAPSKRLEWVAGIYSSATWTYYAPAVKGRATISRDNGQSTVRLQLNDLRAEDTGTYFCAKTSRSGATAYSASAIDAWGHGTEVIV
VL: ALTQPSSVSANPGETVKITCSGGSSYYGWYQQKSPGSAPVTVIYSNDKRPSDIPSRFSGSTSGSTATLTITGVQADDEAVYFCGGYDSNIHGGIFGAGTTLTVL
For B4, the fold decrease in affinity against the original S2B in experiment [1] is 10 fold.

B5: S2N scFv (non‐blocking anti‐6G11 scFv clone 2), solitary (scFv, V domains shown)
VH: AVTLDESGGGLQTPGGGLSLVCKASGFSFSDRGMQWVRQAPGKGLEWVAGIDDDDNNTWYATAVKGRATISRDNGQSTVRLQLNSLRAEDTGTYYCAKTPTSYYWGAAEIDAWGHGTEVIV
VL: ALTQPSSVSANPGETVKITCSGSSGSYGWYQQKAPGSAPVTVIYDNNNRPSNIPSRFSGSLSGSTNTLTITGVQADDEAVYFCGSYEGSSYVGIFGAGTTLTVL
With B5, the EC50 in experiment [2] was 3.9 nM.
